Measured values reported in doi:10.1101/2020.09.21.306357.

Target: ACE2-Fc (soluble human ACE2 fused to human IgG Fc) (human) (UniProt Q9BYF1)
Test: BLI

Sequence of ACE2-Fc (soluble human ACE2 fused to human IgG Fc) (human) (Q9BYF1 18-738): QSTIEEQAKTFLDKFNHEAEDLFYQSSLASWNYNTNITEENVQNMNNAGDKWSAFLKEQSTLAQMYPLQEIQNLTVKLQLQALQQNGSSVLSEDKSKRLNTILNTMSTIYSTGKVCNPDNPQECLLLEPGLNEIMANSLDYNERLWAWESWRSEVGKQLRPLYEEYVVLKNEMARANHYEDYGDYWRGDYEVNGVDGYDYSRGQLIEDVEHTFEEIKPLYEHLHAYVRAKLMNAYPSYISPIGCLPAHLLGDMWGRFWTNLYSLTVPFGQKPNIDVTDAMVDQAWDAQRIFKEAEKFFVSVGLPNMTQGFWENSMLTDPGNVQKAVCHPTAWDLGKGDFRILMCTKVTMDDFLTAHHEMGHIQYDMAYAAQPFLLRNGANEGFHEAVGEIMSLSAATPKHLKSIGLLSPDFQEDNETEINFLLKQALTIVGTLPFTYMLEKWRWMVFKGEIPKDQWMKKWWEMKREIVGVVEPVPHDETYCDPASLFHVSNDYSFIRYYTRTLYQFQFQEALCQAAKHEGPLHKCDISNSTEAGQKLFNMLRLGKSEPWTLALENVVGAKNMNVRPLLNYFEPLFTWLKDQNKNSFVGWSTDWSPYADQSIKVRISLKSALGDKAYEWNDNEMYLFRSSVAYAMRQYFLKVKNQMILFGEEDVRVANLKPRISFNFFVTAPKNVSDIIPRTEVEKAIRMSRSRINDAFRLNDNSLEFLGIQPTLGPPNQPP

SARS-CoV-1 S-Trimer (wild-type SARS-CoV S ectodomain fused to Trimer-Tag) (from UniProt P59594 14-1193) (domain or fragment)
Kd: 1.2 nM
